Test results: US6307026, “Humanized antibodies directed against A33 antigen” (Celltech Limited, dated 2001)

Key:
A33 antigen [1] = target: T1, A33 antigen (human, UniProt Q99795); test: direct binding to ASPC-1 cells, FITC labelled anti-human IgG, FACScan
T1 sequence: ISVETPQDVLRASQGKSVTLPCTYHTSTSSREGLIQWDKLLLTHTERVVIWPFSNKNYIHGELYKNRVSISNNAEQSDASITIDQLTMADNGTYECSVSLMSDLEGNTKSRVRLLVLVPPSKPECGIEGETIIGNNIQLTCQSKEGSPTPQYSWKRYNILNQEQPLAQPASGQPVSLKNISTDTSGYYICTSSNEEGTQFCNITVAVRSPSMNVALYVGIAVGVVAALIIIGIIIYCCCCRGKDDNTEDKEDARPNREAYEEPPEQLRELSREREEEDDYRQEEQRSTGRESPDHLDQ
Protocol: In the direct binding assay ASPC-1 or Colo205 cells were incubated at […] for 1 h. in the presence of various amounts of murine, chimeric or humanised A33, or non-specific antibody controls.
To confirm that the sequences obtained could combine to bind to the A33 antigen the chimeric expression plasmids pRO107 and pRO108 were transiently co-expressed in CHO-L761h cells (Cockett et al., 1990) at 200 mL scale. […] The binding of the antibody to the cells was measured using FITC labelled anti-human IgG and the bound fluorescence was detected in a FACScan analyser.

A33 antigen [2] = target: T1, A33 antigen; test: fluorescein-labelled antibody titrated on SW1222 cells, FACScan, Scatchard plot
Protocol: The potency of hA33 (γ1) was compared to that of murine A33 by binding to cells of the human colerectal cancer cell line SW 1222. Fluorescently labelled conjugates of purified humanised and murine A33 were prepared to give approximately 1.5 molecules of fluorescein per antibody molecule. SW1222 cells (2.8×10⁵ per tube) were incubated with the fluorescent antibodies titrated in the range 3.57 µg/ml to 12 ng/ml in PBS with 5% foetal calf serum and 0.2% sodium azide on ice for 1.5 hours. After washing, antibody bound to the surface of the cells was detected by a FACscan (Becton Dickinson) as a fluorescent signal which was converted to numbers of antibody molecules bound per cell by calibration with fluorescent microbead standards.

A33 antigen [3] = target: T1, A33 antigen; test: competition assays of Example 1 (FITC-labelled murine A33 on cells, FACScan); reference

B1: chimeric A33(γ1) (antibody, V domains shown)
VH: EVKLVESGGGLVKPGGSLKLSCAASGFAFSTYDMSWVRQTPEKRLEWVATISSGGSYTYYLDSVKGRFTISRDSARNTLYLQMSSLRSEDTALYYCAPTTVVPFAYWGQGTLVTVSA
VL: DIVMTQSQKFMSTSVGDRVSITCKASQNVRTVVAWYQQKPGQSPKTLIYLASNRHTGVPDRFTGSGSGTDFTLTISNVQSEDLADYFCLQHWSYPLTFGSGTKLEVKR
Question: Does B1 bind (A33 antigen [1])?
Answer: binds

B2: murine monoclonal antibody A33 (antibody, V domains shown)
VH: EVKLVESGGGLVKPGGSLKLSCAASGFAFSTYDMSWVRQTPEKRLEWVATISSGGSYTYYLDSVKGRFTISRDSARNTLYLQMSSLRSEDTALYYCAPTTVVPFAYWGQGTLVTVSA
VL: DIVMTQSQKFMSTSVGDRVSITCKASQNVRTVVAWYQQKPGQSPKTLIYLASNRHTGVPDRFTGSGSGTDFTLTISNVQSEDLADYFCLQHWSYPLTFGSGTKLEVKR
modifications: FITC or fluorescein label on the antibody where it is used as labelled competitor or in the Scatchard assay (about 1.5 molecules of fluorescein per antibody molecule)
Question: Does B2 bind (A33 antigen [2])?
Answer: binds

B3: mA33 Fab (Fab, V domains shown)
VH: EVKLVESGGGLVKPGGSLKLSCAASGFAFSTYDMSWVRQTPEKRLEWVATISSGGSYTYYLDSVKGRFTISRDSARNTLYLQMSSLRSEDTALYYCAPTTVVPFAYWGQGTLVTVSA
VL: DIVMTQSQKFMSTSVGDRVSITCKASQNVRTVVAWYQQKPGQSPKTLIYLASNRHTGVPDRFTGSGSGTDFTLTISNVQSEDLADYFCLQHWSYPLTFGSGTKLEVKR
Question: Does B3 bind (A33 antigen [3])?
Answer: binds
